According to article PMC6426777 (Frontiers in Immunology, 2019):

Target: T1, recombinant wild-type C1q (human, UniProt P02745 23-245; P02746 28-253; P02747 29-245)
T1 construct: C1q A chain, human; C1q B chain, human; C1q C chain, human; Hexamer of A-B-C heterotrimers (18 chains); also called C1qWT; WT; source: purified from culture supernatant (IgG-ovalbumin aggregates, anti-FLAG M2 column); copies: 6 + 6 + 6
Assay: SPR; Biacore 3000, 25°C; C1q variants immobilised on CM5 chips by amine coupling; partners injected at 20 μl/min in 50 mM Tris-HCl, 150 mM NaCl, 2 mM CaCl2, 0.005% surfactant P20, pH 7.4; BSA reference surface; global fit to 1:1 Langmuir model; apparent KD = kd/ka
Details: both partners purified

T1 sequence (P02745 23-245, chain 1 of 3): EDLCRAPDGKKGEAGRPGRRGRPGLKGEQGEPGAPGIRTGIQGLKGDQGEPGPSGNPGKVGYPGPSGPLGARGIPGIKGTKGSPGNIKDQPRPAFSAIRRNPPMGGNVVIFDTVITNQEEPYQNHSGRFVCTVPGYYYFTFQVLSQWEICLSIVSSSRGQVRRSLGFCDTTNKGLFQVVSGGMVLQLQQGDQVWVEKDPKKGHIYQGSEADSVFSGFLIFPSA
T1 sequence (P02746 28-253, chain 2 of 3): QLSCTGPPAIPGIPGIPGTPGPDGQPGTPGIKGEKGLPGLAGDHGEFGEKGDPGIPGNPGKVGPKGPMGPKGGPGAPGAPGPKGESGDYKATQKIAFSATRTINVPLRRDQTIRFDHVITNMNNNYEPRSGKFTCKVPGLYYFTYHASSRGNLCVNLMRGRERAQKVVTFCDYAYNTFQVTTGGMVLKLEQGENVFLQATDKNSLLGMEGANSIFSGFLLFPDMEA
T1 sequence (P02747 29-245, chain 3 of 3): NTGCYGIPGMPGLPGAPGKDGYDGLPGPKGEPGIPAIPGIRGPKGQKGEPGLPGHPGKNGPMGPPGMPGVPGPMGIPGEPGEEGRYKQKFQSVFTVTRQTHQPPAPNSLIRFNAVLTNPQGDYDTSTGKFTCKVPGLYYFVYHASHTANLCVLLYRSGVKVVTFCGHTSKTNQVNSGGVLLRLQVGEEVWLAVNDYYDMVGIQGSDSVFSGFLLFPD

B1: recombinant human MASP-2 dimer (enzyme, UniProt O00187 16-686, looked up)
chain: TPLGPKWPEPVFGRLASPGFPGEYANDQERRWTLTAPPGYRLRLYFTHFDLELSHLCEYDFVKLSSGAKVLATLCGQESTDTERAPGKDTFYSLGSSLDITFRSDYSNEKPFTGFEAFYAAEDIDECQVAPGEAPTCDHHCHNHLGGFYCSCRAGYVLHRNKRTCSALCSGQVFTQRSGELSSPEYPRPYPKLSSCTYSISLEEGFSVILDFVESFDVETHPETLCPYDFLKIQTDREEHGPFCGKTLPHRIETKSNTVTITFVTDESGDHTGWKIHYTSTAQPCPYPMAPPNGHVSPVQAKYILKDSFSIFCETGYELLQGHLPLKSFTAVCQKDGSWDRPMPACSIVDCGPPDDLPSGRVEYITGPGVTTYKAVIQYSCEETFYTMKVNDGKYVCEADGFWTSSKGEKSLPVCEPVCGLSARTTGGRIYGGQKAKPGDFPWQVLILGGTTAAGALLYDNWVLTAAHAVYEQKHDASALDIRMGTLKRLSPHYTQAWSEAVFIHEGYTHDAGFDNDIALIKLNNKVVINSNITPICLPRKEAESFMRTDDIGTASGWGLTQRGFLARNLMYVDIPIVDHQKCTAAYEKPPYPRGSVTANMLCAGLESGGKDSCRGDSGGALVFLDSETERWFVGGIVSWGSMNCGEAGQYGVYTKVINYIPWIENIISDF
- Kd: 5.04 nM
- koff: 0.00234 s⁻¹
- kon: 463000 M⁻¹ s⁻¹
